This note sets out measurements from patent US20240101716A1 (LA NOVA MEDICINES DEVELOPMENT, published 2024).

One may read the EC50 as the concentration at which the effect is half-maximal. The Kd is the constant that tells how readily two partners part at equilibrium. The term koff denotes a measure of how fast the partners let go of each other. By kon is commonly meant a measure of how fast the partners come together.

Experiment [1] deals with PD-L1 (blocking assay of Example 11) (UniProt Q9NZQ7 19-239, limits assumed). The experiment can be described thus: cell-based or functional assay.
In another experiment the target is T1, PD-L1 expressed on cells (UniProt Q9NZQ7 19-290, limits assumed).
T1 construct: whole, on cells
The experiment can be described thus: FACS binding test on PD-L1 cell line, Geom.Mean; unit from the axis log(nm). Background: In flow cytometry, cells or beads pass a laser one at a time.

The target in experiment [2] is T2, recombinant human SIRPα variant 2 protein (human, UniProt P78324 31-370, limits assumed).
T2 construct: polymorphic variant 2; also called SIRPα v2; hSIRPαV2
The experiment can be described thus: ELISA on coated recombinant human SIRPα v2, OD450. As to the method:
After coating of the antigen, the wells were blocked with PBS/0.05% Tween (PBST) with 1% BSA for 1 h at RT.
Between all incubation steps, the wells of the plate were washed with PBST three times. […]
On the technique in general: An ELISA detects its analyte on a solid surface through an enzyme-linked reagent.

Experiment [3] has as its target T2, recombinant human SIRPα variant 2 …. The experiment is described as follows: SPR Biacore 8K, antibody captured, antigen analyte. The protocol:
The binding kinetics assay of antibody to antigen was performed using Biacore 8K system through human antibody capture approach. The […] Fc lgG were immobilized on CM5 sensor chip according to the manufactory's instruction. The test antibody was injected and captured by the immobilized anti-human Fc lgG. […] The assay system was regenerated by injection of 10 mM Glycine-HCl pH 1.5 for 30 seconds. The running buffer was HBS-EP+ (10 mM HEPES, pH 7.4, 150 mM NaCl, 3 mM EDTA and 0.05% P20). The assay temperature was 25° C., and the association and dissociation time were 180 and 600 seconds, respectively.
(In general: Surface plasmon resonance follows binding to a sensor surface in real time, without labels.)

T2 sequence (P78324 other isoform, or with tags, fused parts or gaps mutant limits assumed): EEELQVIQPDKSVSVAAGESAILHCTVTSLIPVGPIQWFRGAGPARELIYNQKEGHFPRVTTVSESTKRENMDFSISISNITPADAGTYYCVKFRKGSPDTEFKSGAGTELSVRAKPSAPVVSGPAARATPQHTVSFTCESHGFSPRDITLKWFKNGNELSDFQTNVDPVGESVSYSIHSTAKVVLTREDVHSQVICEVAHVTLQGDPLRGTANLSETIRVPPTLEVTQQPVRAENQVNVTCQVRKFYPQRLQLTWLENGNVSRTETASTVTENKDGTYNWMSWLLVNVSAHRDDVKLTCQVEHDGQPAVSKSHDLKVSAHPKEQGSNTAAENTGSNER
PD-L1 (blocking assay of Example 11), sequence (Q9NZQ7 19-239 limits assumed): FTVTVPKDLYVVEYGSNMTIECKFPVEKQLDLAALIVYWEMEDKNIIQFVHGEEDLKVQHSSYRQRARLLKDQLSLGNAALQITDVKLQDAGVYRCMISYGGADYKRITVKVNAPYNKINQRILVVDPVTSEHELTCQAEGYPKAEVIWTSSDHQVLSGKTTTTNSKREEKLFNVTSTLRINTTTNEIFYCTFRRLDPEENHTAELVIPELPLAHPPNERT
T1 sequence (Q9NZQ7 19-290 limits assumed): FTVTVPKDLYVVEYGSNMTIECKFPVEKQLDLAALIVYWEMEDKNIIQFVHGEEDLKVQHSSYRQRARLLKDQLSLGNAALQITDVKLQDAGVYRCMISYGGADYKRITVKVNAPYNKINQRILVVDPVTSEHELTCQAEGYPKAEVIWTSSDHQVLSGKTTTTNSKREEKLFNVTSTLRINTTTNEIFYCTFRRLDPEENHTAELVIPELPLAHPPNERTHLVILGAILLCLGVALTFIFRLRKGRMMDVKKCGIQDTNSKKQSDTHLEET

B1: PD-L1/SIRPa-HC1 (bispecific antibody, human IgG4 S228P, kappa)
heavy: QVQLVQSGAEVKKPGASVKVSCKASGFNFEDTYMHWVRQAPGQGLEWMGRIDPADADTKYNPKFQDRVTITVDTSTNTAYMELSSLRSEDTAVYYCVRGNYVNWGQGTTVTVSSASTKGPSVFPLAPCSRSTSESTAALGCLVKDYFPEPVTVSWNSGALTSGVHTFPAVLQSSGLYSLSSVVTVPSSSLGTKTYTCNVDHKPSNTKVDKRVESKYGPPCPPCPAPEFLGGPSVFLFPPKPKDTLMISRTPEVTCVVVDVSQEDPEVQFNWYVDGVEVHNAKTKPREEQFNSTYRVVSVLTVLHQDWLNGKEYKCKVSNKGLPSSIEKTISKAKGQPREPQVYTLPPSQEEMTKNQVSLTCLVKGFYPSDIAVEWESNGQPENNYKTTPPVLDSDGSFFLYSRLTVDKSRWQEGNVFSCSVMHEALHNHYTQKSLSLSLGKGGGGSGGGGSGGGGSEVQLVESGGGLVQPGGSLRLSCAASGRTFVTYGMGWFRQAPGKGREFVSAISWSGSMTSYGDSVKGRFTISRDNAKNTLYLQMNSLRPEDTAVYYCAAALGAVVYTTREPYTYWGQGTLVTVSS
light: EIVLTQSPGTLSLSPGERATLSCRASSSVSSSYLYWYQQKPGQAPRLLIYSTSNLASGIPDRFSGSGSGTDYTLTISRLEPEDAAVYFCHQWYSYPRTFGGGTKVEIKRTVAAPSVFIFPPSDEQLKSGTASVVCLLNNFYPREAKVQWKVDNALQSGNSQESVTEQDSKDSTYSLSSTLTLSKADYEKHKVYACEVTHQGLSSPVTKSFNRGEC
notes: Format I: AS11948SVH12 sdAb at the C-terminus of IgG4 Fc of 02-hz52 (248G3F6); also called PD-L1/SIRPα-HC1
Turning to B1, the “EC50, luminescence (RLU) in the PD-1/PD-L1 Blockade Assay” value (shortened to “EC50, luminescence (RLU)”) in experiment [1] was 0.9 nM. For the same molecule, a half-maximal response with PD-L1 expressed on cells (EC50) required 0.321 nM.

B2: PD-L1/SIRPa-HN1 (bispecific antibody, human IgG4 S228P, kappa)
heavy: not shown
light: EIVLTQSPGTLSLSPGERATLSCRASSSVSSSYLYWYQQKPGQAPRLLIYSTSNLASGIPDRFSGSGSGTDYTLTISRLEPEDAAVYFCHQWYSYPRTFGGGTKVEIKRTVAAPSVFIFPPSDEQLKSGTASVVCLLNNFYPREAKVQWKVDNALQSGNSQESVTEQDSKDSTYSLSSTLTLSKADYEKHKVYACEVTHQGLSSPVTKSFNRGEC
notes: Format II: sdAb at the N-terminus of the heavy chain (248G3F6); also called PD-L1/SIRPα-HN1
The molecule B2 registered a concentration for a half-maximal effect (EC50) with PD-L1 expressed on cells of 0.311 nM.

B3: 300A6A6 (antibody, V domains shown)
VH: QVQLQQSGTELVKPGSSVKISCKASGYTFTSNYIHWIRQQPGNGLEWIGWIYPGDGDTNYNQKFNGKATLTADKSSSTAYMQLSSLTSEDYAVYFCAINYGGIWFAYWGQGTLVTVSS
VL: DIQMTQSPSSMSASLGDRVTITCQASQDIGNKLIWFQQKPGKSPRLMIHYVTNLPGGVPLRFSGSRSGSDYSLTISSLESEDMADYYCLQYKQNPLTFGSGTKLEIK
notes: murine hybridoma antibody; also called mouse anti-SIRPα mAb 300A6A6
On to B3, for which the half-maximal effective concentration (EC50) in experiment [2] amounted to 0.0105 µg/mL.

B4: PD-L1/SIRPa-LC2 (bispecific antibody, human IgG4 S228P, kappa)
heavy: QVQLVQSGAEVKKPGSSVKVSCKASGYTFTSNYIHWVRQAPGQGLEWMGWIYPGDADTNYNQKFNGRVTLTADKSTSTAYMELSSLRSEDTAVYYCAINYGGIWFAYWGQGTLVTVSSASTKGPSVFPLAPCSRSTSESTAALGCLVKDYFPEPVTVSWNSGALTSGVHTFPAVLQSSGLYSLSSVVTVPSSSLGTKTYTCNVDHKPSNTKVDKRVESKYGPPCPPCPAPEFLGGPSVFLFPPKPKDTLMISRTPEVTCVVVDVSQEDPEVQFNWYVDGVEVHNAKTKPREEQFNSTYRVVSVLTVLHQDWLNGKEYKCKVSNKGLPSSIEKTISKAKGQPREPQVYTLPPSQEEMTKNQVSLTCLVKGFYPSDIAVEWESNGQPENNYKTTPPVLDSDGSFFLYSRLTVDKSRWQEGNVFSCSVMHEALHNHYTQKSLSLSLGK
light: DIQMTQSPSSLSASVGDRVTITCQASQDIGNKLIWYQQKPGKAPKLLIYYVTNLPGGVPSRFSGSGSGTDFTLTISSLQPEDFATYYCLQYKQNPLTFGQGTKLEIKRTVAAPSVFIFPPSDEQLKSGTASVVCLLNNFYPREAKVQWKVDNALQSGNSQESVTEQDSKDSTYSLSSTLTLSKADYEKHKVYACEVTHQGLSSPVTKSFNRGECGGGGSGGGGSGGGGSEVQLVESGGGLVQPGGSLRLSCAASGRTFVTYGMGWFRQAPGKGREFVSAISWSGSMTSYGDSVKGRFTISRDNAKNTLYLQMNSLRPEDTAVYYCAAALGAVVYTTREPYTYWGQGTLVTVSS
notes: Format III: sdAb at the C-terminus of the light chain (300A6A6); also called PD-L1/SIRPα-LC2
As to B4, the “EC50, luminescence (RLU)” value in experiment [1] was 1.55 nM. In the experiment with PD-L1 expressed on cells, this molecule registered a half-maximal effective concentration (EC50) of 0.912 nM.

B5: 248G3F6 (antibody, V domains shown)
VH: EVQLQQSGAELVKPGASVKLSCTASGFNFEDTYMHWVKQRPDQGLEWIGRIDPADGDTKYNPKFQDKATITVDTSSNTAYLQLSSLTSEDTAVYYCVRGNYVNWGQGTTLTVSS
VL: QIVLIQSPAIMSASPGERVTLTCRASSSVSSSYLYWYQQKPGSSPKLWIYSTSNLASGVPARFSGSGSGTSYSLTISSMEAEDAASYFCHQWYSYPRTFGGGTKLEIK
notes: murine hybridoma antibody; also called mouse anti-SIRPα mAb 248G3F6
For the molecule B5, the concentration for a half-maximal effect (EC50) in experiment [2] came to 0.0136 µg/mL.

B6: PD-L1/SIRPa-LN2 (bispecific antibody, human IgG4 S228P, kappa)
heavy: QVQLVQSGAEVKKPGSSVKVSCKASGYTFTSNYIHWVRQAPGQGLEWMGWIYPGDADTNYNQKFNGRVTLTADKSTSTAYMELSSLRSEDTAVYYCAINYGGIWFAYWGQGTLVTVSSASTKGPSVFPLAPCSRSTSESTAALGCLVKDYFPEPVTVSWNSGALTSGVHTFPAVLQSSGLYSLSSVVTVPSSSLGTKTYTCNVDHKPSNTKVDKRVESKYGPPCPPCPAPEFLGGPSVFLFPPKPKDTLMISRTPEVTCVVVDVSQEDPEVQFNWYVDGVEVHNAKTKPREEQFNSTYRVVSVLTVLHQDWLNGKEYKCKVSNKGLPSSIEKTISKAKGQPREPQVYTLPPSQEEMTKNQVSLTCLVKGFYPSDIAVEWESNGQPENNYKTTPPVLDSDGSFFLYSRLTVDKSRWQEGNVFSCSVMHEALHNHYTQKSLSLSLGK
light: EVQLVESGGGLVQPGGSLRLSCAASGRTFVTYGMGWFRQAPGKGREFVSAISWSGSMTSYGDSVKGRFTISRDNAKNTLYLQMNSLRPEDTAVYYCAAALGAVVYTTREPYTYWGQGTLVTVSSGGGGSGGGGSGGGGSDIQMTQSPSSLSASVGDRVTITCQASQDIGNKLIWYQQKPGKAPKLLIYYVTNLPGGVPSRFSGSGSGTDFTLTISSLQPEDFATYYCLQYKQNPLTFGQGTKLEIKRTVAAPSVFIFPPSDEQLKSGTASVVCLLNNFYPREAKVQWKVDNALQSGNSQESVTEQDSKDSTYSLSSTLTLSKADYEKHKVYACEVTHQGLSSPVTKSFNRGEC
notes: Format IV: sdAb at the N-terminus of the light chain (300A6A6); also called PD-L1/SIRPα-LN2
For the molecule B6, the “EC50, luminescence (RLU)” value in experiment [1] came to 0.873 nM. The same molecule returned an EC50 with PD-L1 expressed on cells of 0.205 nM.

B7: HSP210-03-hz51 (antibody, V domains shown)
VH: QVQLVQSGAEVKKPGSSVKVSCKASGYTFTSNYIHWVRQAPGQGLEWMGWIYPGDADTNYNQKFNGRVTLTADKSTSTAYMELSSLRSEDTAVYYCAINYGGIWFAYWGQGTLVTVSS
VL: DIQMTQSPSSLSASVGDRVTITCQASQDIGNKLIWYQQKPGKAPKLLIYYVTNLPGGVPSRFSGSGSGTDFTLTISSLQPEDFATYYCLQYKQNPLTFGQGTKLEIK
notes: humanized 300A6A6, VH v5 + VL v1; also called SIRPa IgG#2 03-hz51
For B7, in experiment [3], the Kd worked out at 3.03 nM, the dissociation rate constant (koff) worked out at 0.001 s⁻¹ and the kon came to 331000 M⁻¹ s⁻¹.

B8: PD-L1/SIRPa-HN2 (bispecific antibody, human IgG4 S228P, kappa)
heavy: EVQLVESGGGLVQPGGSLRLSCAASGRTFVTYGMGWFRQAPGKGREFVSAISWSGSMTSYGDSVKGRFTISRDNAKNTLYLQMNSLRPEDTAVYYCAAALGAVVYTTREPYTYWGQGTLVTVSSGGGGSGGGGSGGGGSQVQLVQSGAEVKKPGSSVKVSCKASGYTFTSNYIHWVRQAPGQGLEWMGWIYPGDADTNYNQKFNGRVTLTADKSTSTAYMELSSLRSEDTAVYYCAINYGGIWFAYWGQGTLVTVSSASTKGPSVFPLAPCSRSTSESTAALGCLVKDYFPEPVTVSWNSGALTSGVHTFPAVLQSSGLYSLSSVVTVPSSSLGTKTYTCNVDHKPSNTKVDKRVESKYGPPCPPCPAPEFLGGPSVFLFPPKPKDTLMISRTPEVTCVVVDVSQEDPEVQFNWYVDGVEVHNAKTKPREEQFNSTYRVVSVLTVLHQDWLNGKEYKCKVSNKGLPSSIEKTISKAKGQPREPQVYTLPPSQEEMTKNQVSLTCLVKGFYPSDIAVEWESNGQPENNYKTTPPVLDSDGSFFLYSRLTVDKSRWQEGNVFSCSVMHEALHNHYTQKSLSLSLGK
light: DIQMTQSPSSLSASVGDRVTITCQASQDIGNKLIWYQQKPGKAPKLLIYYVTNLPGGVPSRFSGSGSGTDFTLTISSLQPEDFATYYCLQYKQNPLTFGQGTKLEIKRTVAAPSVFIFPPSDEQLKSGTASVVCLLNNFYPREAKVQWKVDNALQSGNSQESVTEQDSKDSTYSLSSTLTLSKADYEKHKVYACEVTHQGLSSPVTKSFNRGEC
notes: Format II: sdAb at the N-terminus of the heavy chain (300A6A6); also called PD-L1/SIRPα-HN2
For the molecule B8, in experiment [1], the “EC50, luminescence (RLU)” value came out at 0.908 nM. In the experiment with PD-L1 expressed on cells, this molecule gave a concentration giving a half-maximal response (EC50) of 0.269 nM.
